In patent US20020132976A1 (published 2002):

Molecular target: T1, membrane-bound HLA-A0201 molecule on T2 cells (human)
T1 construct: whole, on cells; also called surface HLA-A0201 molecules; human MHC class 1 molecule
Assay: T2 cell HLA-A0201 stabilisation, BB7.2 staining, flow cytometry
Method: Thus, the detection of this specific epitope is indicative of stable membrane-bound HLA-A0201 molecules loaded with peptide. Subsequent dissociation of peptides from the HLA class 1 MHC molecules results in the loss of BB7.2 monoclonal antibody binding.
T2 cells were propagated in Iscove's complete medium (iscove's medium supplemented with 10% heat-inactivated bovine serum, 120.0 units per ml of penicillin G sodium, 120 μg per ml of streptomycin sulphate, and 0.35 mg per ml of L-glutamine). The ability of PSA peptides (Table 1) to bind and stabilize surface HLA-A0201 molecules on T2 cells was determined utilizing a protocol documented in the art (Deng, Y. (1997) J Immune 158:1507-1515). In essence, 0.5×10⁶ T2 cells were incubated with 125.0 μM of the test peptide in 200.0 μl of serum-free culture medium (Iscove's medium supplemented with 120.0 units per ml of penicillin G sodium, 120.0 μg per ml of streptomycin sulphate and 0.35 mg per ml of L-glutamine) overnight at 37° C. Subsequently, cells were washed twice with Iscove's medium (without bovine serum) to remove free PSA peptide. […] The binding of BB7.2 was detected via the addition of 100.0 μl of PBA containing […] of goat anti-mouse IgG-Fc fluorescein (FITC) conjugate (BETHYL Laboratories Inc.). […] Samples were analyzed by Flow Cytometry. Results were expressed in units of Fluorescence Index (FI), calculated by the equation: […]

binding result: no binding
Binder: DLHVISNDV [CLP-317]
